These results are taken from patent US20200055951A1 (DONG A UNIVERSITY RESEARCH FOUNDATION FOR INDUSTRY ACADEMY …, published 2020).

One may read the Kd as the free concentration of one partner at which half of the binding sites on the other are occupied at equilibrium, for simple one-to-one binding. As usually defined, the EC50 (read off the curve) is the concentration that produces a half-maximal response. Read a low EC50 (read off the curve) as a more potent agent.

For test [1], the target named is T1, pancreatic adenocarcinoma upregulated factor (PAUF) protein (UniProt Q96DA0 17-172, limits assumed).
T1 construct: no tag is mentioned there; also called Antigen PAUF
T1 sequence (looked up): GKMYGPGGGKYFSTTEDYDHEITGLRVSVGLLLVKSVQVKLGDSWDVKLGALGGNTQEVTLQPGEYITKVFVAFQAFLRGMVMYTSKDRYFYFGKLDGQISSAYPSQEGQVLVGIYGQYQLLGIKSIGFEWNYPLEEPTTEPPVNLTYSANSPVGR
The test is described as follows: SPR, PAUF immobilized, antibody in flow at different concentrations. As to the method:
Specifically, the antigen-antibody binding affinity was measured using the SPR method. Antigen PAUF was immobilized on the surface of a thin metal film and the antibody was diluted at different concentrations and allowed to pass through the metal surface. The antigen-antibody binding affinity was measured by measuring the time required for binding and dissociation between antigens and antibodies.

The target of a further test is T2, PAUF-His protein (UniProt Q96DA0 17-172, limits assumed).
T2 construct: not shown: His tag
T2 sequence (looked up): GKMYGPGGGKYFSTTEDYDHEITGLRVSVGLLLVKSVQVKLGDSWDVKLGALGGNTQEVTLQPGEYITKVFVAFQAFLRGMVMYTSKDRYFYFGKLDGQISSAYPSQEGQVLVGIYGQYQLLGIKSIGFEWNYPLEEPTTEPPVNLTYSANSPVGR
The test is described as follows: indirect ELISA titration on PAUF-His, anti-human Fc-HRP; column head Kd (10^-9 M). The method, then:
Specifically, indirect ELISA was performed. An immuno-plate was coated with the PAUF-His protein and treated with each antibody at different concentrations, and the results were analyzed using the anti-human Fc-HRP capable of recognizing the constant region of human antibody as the secondary antibody. In particular, as the concentration of each antibody increases, the OD value increases.
In general terms: In an ELISA, binding on a coated surface is turned into a signal by an enzyme label.

Test [2] has as its target T1, pancreatic adenocarcinoma upregulated …. Description: indirect ELISA, PAUF-coated plate, HRP-labeled anti-mouse antibody. The method, then: Specifically, the affinity of the antigen-antibody was tested using indirect ELISA. The PAUF-coated immuno-plate was treated with the four kinds of antibodies (2H2, 4E6, 11 G6, and 20C5) at different concentrations and the OD values were measured using the HRP-labeled anti-mouse antibody. In particular, as the OD value becomes higher, the affinity of the antibody for the PAUF becomes higher. Additionally, for the measurement of the nonspecific binding of an anti-PAUF mouse monoclonal antibody, which has a high affinity for PAUF, to other antigenic proteins, the immuno-plate was coated with PAUF and unspecified antigens so as to perform indirect ELISA.

B1: hPMAb22 (anti-PAUF protein humanized antibody) (antibody, V domains shown)
VH: QVQLVQSGAEVKKPGASVKVSCKASGFNIKDYYMHWVRQAPGQGLEWMGWIDPENGNTNYAQKFQGRVTMTRDTSISTAYMELSRLRSDDTAVYYCARRAITTATAWFAYWGQGTLVTVSS
VL: DIVMTQSPDSLAVSLGERATINCKSSQSLLNSRTRKNYLAWYQQKPGQPPKLLIYWASTRESGVPDRFSGSGSGTDFTLTISSLQAEDVAVYYCKQSYNLYTFGQGTKVEIK
notes: CDR-grafted humanized antibody with human constant regions; Expressed in HEK293 cells; also called 2H2-VH1/VL1; 2H2-VH1-VL1
As for B1, binding in test [1] was characterised by a dissociation constant (Kd) of 0.194 nM.

B2: cPMAb22 (chimeric antibody of 2H2) (antibody, V domains shown)
VH: QVQLKQSGAELVRPGALVKLSCKASGFNIKDYYMHWVKQRPEQGLEWIGWIDPENGNTIYDPKFQGKASITADTSSNTAYLQLSSLTSEDTAVYYCARRAITTATAWFAYWGQGTLVTVSA
VL: DIVMTQSPSSLAVSAGEKVTMSCKSSQSLLNSRTRKNYLAWYQQKPGQSPKLLIYWASTRESGVPDRFTGSGSGTDFTLTISSVQAEDLAVYYCKQSYNLYTFGAGTKLELK
notes: Mouse variable regions of 2H2 on human heavy and light chain constant regions (kappa light chain implied by the anti-human kappa secondary antibody); Expressed in HEK293 cells
As for B2, binding in the test with PAUF-His protein was characterised by a dissociation constant (Kd) of 0.01 nM.

B3: 2H2 (anti-PAUF protein mouse antibody) (antibody, V domains shown)
VH: QVQLKQSGAELVRPGALVKLSCKASGFNIKDYYMHWVKQRPEQGLEWIGWIDPENGNTIYDPKFQGKASITADTSSNTAYLQLSSLTSEDTAVYYCARRAITTATAWFAYWGQGTLVTVSA
VL: DIVMTQSPSSLAVSAGEKVTMSCKSSQSLLNSRTRKNYLAWYQQKPGQSPKLLIYWASTRESGVPDRFTGSGSGTDFTLTISSVQAEDLAVYYCKQSYNLYTFGAGTKLELK
notes: Mouse monoclonal antibody; also called 21-12 [sic]
Turning to B3, the “EC50 (read off the curve)” value in test [2] is approximately 0.05 µg/mL.

B4: 20C5 (anti-PAUF protein mouse antibody) (antibody, V domains shown)
VH: QVQLKESGAELVRPGALVKLSCKASGFNIKDYYMHWVKQRPEQGLEWIGWIDPEHGNTIYDPKFQGKASLTADTSSNTAYLQLSSLTSEDTAVYYCARRGWLPAWFAYWGQGTLVTVSA
VL: DIVMTQSPSSLAVSAGEKVTLSCKSSQSLLNSRTRKNYLAWYQQKPGQSPKLLIYWASTRESGVPDRFTGSGSGTDFTLTISSVQAEDLAVYYCKQSYNLYTFGGGTKLEIK
notes: Mouse monoclonal antibody
Consider B4, for which, in test [2], the concentration for a half-maximal effect (EC50 (read off the curve)) was approximately 0.02 µg/mL.

B5: cPMAb205 (chimeric antibody of 20C5) (antibody, V domains shown)
VH: QVQLKESGAELVRPGALVKLSCKASGFNIKDYYMHWVKQRPEQGLEWIGWIDPEHGNTIYDPKFQGKASLTADTSSNTAYLQLSSLTSEDTAVYYCARRGWLPAWFAYWGQGTLVTVSA
VL: DIVMTQSPSSLAVSAGEKVTLSCKSSQSLLNSRTRKNYLAWYQQKPGQSPKLLIYWASTRESGVPDRFTGSGSGTDFTLTISSVQAEDLAVYYCKQSYNLYTFGGGTKLEIK
notes: Mouse variable regions of 20C5 on human heavy and light chain constant regions (kappa light chain implied by the anti-human kappa secondary antibody); Expressed in HEK293 cells
On to B5, for which the Kd in the test with PAUF-His protein came out at 0.03 nM.
